PMC9586334 (Proceedings of the National Academy of Sciences of the …, 2022)
Positions of bridges follow the written chain, without caps; N, C: chain ends. lipid anchor = not defined here

Molecular target: T1, FhuA, outer membrane TonB-dependent transporter of E. coli (mature part, His10-TEV construct) (E. coli, UniProt P06971 34-747)
T1 construct: FhuA of E. coli, the mature part, amplified from E. coli genomic DNA; No TEV cleavage is told for the SEC and cryo-EM samples; also called wild-type FhuA; free FhuA; source: E. coli Bl21 (DE3) Δcyo, alone or co-overexpressed with Llp, purified (IMAC, SEC, in detergent)
T1 sequence (looked up): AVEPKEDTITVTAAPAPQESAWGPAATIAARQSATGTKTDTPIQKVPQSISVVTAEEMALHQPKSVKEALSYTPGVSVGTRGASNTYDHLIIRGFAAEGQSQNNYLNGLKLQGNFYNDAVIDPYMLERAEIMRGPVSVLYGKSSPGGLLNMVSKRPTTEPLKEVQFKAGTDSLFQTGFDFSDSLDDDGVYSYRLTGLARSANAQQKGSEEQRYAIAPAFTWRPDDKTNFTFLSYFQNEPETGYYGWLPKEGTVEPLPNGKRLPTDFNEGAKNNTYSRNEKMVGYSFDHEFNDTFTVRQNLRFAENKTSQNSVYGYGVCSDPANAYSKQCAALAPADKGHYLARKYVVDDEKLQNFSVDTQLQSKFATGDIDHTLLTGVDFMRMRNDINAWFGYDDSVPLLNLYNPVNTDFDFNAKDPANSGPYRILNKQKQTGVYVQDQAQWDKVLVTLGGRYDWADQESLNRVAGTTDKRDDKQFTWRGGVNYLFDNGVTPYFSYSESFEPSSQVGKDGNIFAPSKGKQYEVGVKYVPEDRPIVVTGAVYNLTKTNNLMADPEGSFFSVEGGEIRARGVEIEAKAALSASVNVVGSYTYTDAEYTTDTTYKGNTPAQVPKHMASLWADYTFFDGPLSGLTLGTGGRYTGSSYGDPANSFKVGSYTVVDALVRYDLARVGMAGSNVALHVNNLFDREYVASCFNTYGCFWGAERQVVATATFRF
Experiment: SEC; complex assembled in vivo by co-overexpression in E. coli, purified by IMAC and then gel filtration (Superdex-200, 10 mM Hepes, 100 mM NaCl, 0.05% LDAO, pH 7.5); fractions on SDS-PAGE
Conditions: partners not purified

B1: Llp, superinfection exclusion lipoprotein of bacteriophage T5 (natural protein, UniProt Q38162 16-77, looked up)
chain: C(lipid anchor)STFGPKDIKCEAYYMQDHVKYKANVFDRKGDMFLVSPIMAYGSFWAPVSYFTEGNTCEGVF
modifications: disulfide 11-58; reading uncertain
notes: Llp of bacteriophage T5, codon-optimized synthetic gene in the arabinose-inducible vector pB22; Lipoprotein; also called lytic conversion protein; SE lipoprotein; source: E. coli Bl21 (DE3) Δcyo, alone or co-overexpressed with FhuA, purified from membranes (IMAC, SEC, in detergent)
B1: binds.
